Results published in patent publication US11571480B2, “Multi-ligand drug conjugates and uses thereof” (priority 2015, dated 2023).

Columns and labels:
[1] = Cytotoxicity test of conjugate LDC11B; format: cell-based, human; conditions: human, 293A embryonic kidney cells, incubated 15-30 min, then 2-3 days
Protocol: (§1) Culture medium: RPMI 1640 Medium, no folic acid
(§2) 1) human lung cancer cell H460, ovarian cancer cell SKOV3, human embryonic kidney cell 293A were incubated at 37° C., 5% CO2 in RPMI 1640 medium containing 10% fetal bovine serum, the cells were passaged every 2-3 days.
(§3) 2) human lung cancer cell H460, ovarian cancer cell SKOV3, human embryonic kidney cell 293A were plated at 1×10^3 cells per well (96-well plate) and incubated for 8-12 h at 37° C., 5% CO2.
(§4) 3) Stock solutions of LDC conjugates or control were prepared in PBS solution. 100 μL/well of serially diluted LDC conjugates or control was added to the cells in the plate and incubated for 15-30 min at 37° C., 5% CO2. The culture medium in the wells was then removed by aspiration and the cells were incubated in fresh culture medium without conjugates (150 μL/well) for 2-3 days at 37° C., 5% CO2.
(§5) 4) CellTiter 96® Aqueous One Solution Cell Proliferation Assay (Promega) was added to each well to measure the amount of […] cells, and the plate was incubated in an incubator for 1 h at 37° C., 5% CO2.
(§6) 5) The plate was read at 490 nm on a microplate reader, and the cell survivals were compared for cells with or without the treatment of LDC conjugates. The LDC drug concentrations that are required for 50% cell death (IC50 values) were determined.

[2] = test system: human lung cancer cell H460; assay: Cytotoxicity test of conjugate LDC11B; format: cell-based; conditions: H460, incubated 15-30 min, then 2-3 days
Protocol: as §1, §2, §3, §4, §5, §6

[3] = test system: ovarian cancer cell SKOV3; assay: Cytotoxicity test of conjugate LDC11B; format: cell-based, human; conditions: SKOV3, incubated 15-30 min, then 2-3 days
Protocol: as §1, §2, §3, §4, §5, §6

[4] = test system: Transplanted H460 tumor; assay: Inhibitory assay of conjugates LDC11A, LDC11B against xenograf tumors; format: in vivo, nude mice; conditions: H460 tumor, 10 mg/kg
Protocol: Animal: nude mice, aged 6-8 weeks, female
1) human large cell lung cancer cell H460, ovarian cancer cell SKOV3, breast cancer cell line HCC1954, and human breast cancer cell SK-BR-3 were incubated at 37° C., 5% CO2 in IMDM medium containing 10% fetal bovine serum, the cells were passaged every 2-3 days.
2) generation of tumors: 7×10^6 tumor cells were subcutaneously injected into the back of nude mice, and the mice were grouped for treatment after the tumor sizes were as large as about 100˜200 mm^3.
3) treatment: 3 mice/group, treated with LDC11A, LDC11B, as well as controls MMAE and PBS with doses of 5 and 10 mg/kg every 5 days, three injections.
4) the physical performance, body weights and tumor sizes of the animals were monitored. The number of animal death was recorded during the experiment.

CC[C@H](C)[C@@H]([C@@H](CC(=O)N1CCC[C@H]1[C@H](OC)[C@@H](C)C(=O)N[C@H](C)[C@@H](O)c1ccccc1)OC)N(C)C(=O)[C@@H](NC(=O)[C@H](C(C)C)N(C)C(=O)OCc1ccc(NC(=O)[C@H](CCCNC(N)=O)NC(=O)[C@@H](NC(=O)CCCCCN2C(=O)CC(SC[C@H](NC(=O)CNC(=O)[C@@H]3CCCN3C(=O)[C@H](CCCNC(=N)N)NC(=O)[C@H](CC(C)C)NC(=O)CNC(=O)[C@H](Cc3ccc(O)cc3)NC(=O)[C@H](CO)NC(=O)[C@H](Cc3c[nH]c4ccccc34)NC(=O)[C@H](Cc3c[nH]cn3)NC(=O)[C@@H](N)CCC(=O)O)C(=O)O)C2=O)C(C)C)cc1)C(C)C (stereo partly drawn) [LDC11A, P11-MC-Val-Cit-PAB-MMAE, reference compound]
IC50 [1]: 1310 nM
IC50 [2]: 667 nM
IC50 [3]: 341 nM
animal death / toxicity (in words) [4]: dead after the first injection
Body weight of mice ([4]; Before Injection): 24.46 g
Body weight of mice ([4]; Five days after Injection 1): Death
Body weight of mice ([4]; Three days after Injection 1): 18.25 g
